pKd: −log10 of the molar value.

The assay deals with HLA-A2 molecules immunoaffinity-purified from Jesthom cells, with added human β2-microglobulin (human (endogenous in Jesthom) | human).

HBV core 18-27, synthetic peptide: the pKd – broadly, the Kd on a negative log10 scale, so that one unit is a factor of ten – is 7.40.

(Values after PMC2195672.)
